The record followed here is patent US20230002481A1 (Chugai, published 2023).

Assay [1] concerns the target T1, recombinant human C1r2s2 tetramer (human, UniProt P09871 16-688; P00736 18-705).
T1 construct: Heterotetramer of two C1r and two C1s chains, co-expressed in FreeStyle293-F cells; also called human C1r2s2s
T1 chain 1: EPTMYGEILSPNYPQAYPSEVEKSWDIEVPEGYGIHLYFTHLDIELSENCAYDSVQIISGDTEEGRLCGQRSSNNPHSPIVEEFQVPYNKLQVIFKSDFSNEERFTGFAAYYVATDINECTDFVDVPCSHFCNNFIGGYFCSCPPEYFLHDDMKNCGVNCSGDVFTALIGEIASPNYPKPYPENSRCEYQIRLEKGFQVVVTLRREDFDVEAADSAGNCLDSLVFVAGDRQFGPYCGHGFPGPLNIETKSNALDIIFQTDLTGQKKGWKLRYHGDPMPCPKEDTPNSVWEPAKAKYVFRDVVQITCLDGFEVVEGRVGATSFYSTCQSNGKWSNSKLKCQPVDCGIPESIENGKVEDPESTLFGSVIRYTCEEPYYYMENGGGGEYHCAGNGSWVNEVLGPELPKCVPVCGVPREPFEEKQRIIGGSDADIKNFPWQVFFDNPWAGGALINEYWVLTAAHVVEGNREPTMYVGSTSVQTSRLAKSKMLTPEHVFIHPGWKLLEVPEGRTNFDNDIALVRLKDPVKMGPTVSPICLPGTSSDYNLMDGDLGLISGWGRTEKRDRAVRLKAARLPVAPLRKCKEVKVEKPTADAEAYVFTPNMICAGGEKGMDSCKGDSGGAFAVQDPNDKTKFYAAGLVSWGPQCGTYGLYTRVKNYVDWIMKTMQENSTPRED
T1 chain 2: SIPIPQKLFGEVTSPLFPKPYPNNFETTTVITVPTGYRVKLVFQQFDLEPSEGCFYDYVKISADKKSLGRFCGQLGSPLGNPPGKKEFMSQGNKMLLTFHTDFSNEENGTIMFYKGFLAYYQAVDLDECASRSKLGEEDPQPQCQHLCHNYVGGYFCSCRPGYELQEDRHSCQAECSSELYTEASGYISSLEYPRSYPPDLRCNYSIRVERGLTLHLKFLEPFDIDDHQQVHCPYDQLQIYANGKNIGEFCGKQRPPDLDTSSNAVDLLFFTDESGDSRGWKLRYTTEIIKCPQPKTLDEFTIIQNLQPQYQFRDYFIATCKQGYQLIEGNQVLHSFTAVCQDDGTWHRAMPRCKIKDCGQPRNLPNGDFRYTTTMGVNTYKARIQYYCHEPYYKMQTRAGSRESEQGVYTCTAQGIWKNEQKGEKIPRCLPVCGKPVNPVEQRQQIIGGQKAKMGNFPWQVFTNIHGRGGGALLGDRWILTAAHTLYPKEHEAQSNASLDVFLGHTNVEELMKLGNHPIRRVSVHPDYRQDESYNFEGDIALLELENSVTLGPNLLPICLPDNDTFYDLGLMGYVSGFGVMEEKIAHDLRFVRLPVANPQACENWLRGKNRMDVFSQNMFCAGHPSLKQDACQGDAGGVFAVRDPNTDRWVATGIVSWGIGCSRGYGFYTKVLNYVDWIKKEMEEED
Kind of assay: SPR (Biacore), pH5.8*: dissociation at pH5.8 after association and dissociation at pH7.4, 37 C, Scrubber fit. As to the method: (§1) The kinetic parameters of anti-C1s antibodies against recombinant human C1s (as described in PCT/JP2018/042054), human C1r2s2, and cyno C1r2s2 His/Flag (also referred as cyno C1r2s2 in the Table and Figures) were assessed at pH7.4 and pH5.8, at 37 degrees C. using BIACORE (registered trademark) T200 instrument (GE Healthcare) or BIACORE 4000 (GE Healthcare). ProAG (Pierce) was immobilized onto a CM4 sensorchip using amine coupling kit (GE Healthcare) according to the recommended settings by GE Healthcare. Antibodies and analytes were diluted into the respective running buffers, ACES pH7.4 and pH5.8 (20 mM ACES, 150 mM NaCl, 1.2 mM CaCl₂, 1 mg/ml BSA, 1 mg/ml CMD, 0.05% Tween 20, 0.005 w/v % NaN₃). Each antibody was captured onto the sensor surface by ProA/G. Antibody capture levels were typically 100-200 resonance units (RU). Then, recombinant C1s was injected at concentrations of 25 and 50 nM followed by dissociation at pH7.4 and pH5.8. The surface was regenerated using 10 mM Glycine-HCl, pH1.5. Kinetic parameters at neutral pH conditions and acidic conditions were determined by fitting the sensorgrams with 1:1 binding model using BIACORE (registered trademark) T200 Evaluation software, version 2.0 (GE Healthcare) or BIACORE 4000 Evaluation software. The dissociation rate at pH5.8 (after dissociation at pH7.4, indicated as pH5.8* in TABLE 2) was determined by processing and fitting data using Scrubber 2.0 (BioLogic Software) curve fitting software. The association rate (ka), dissociation rate (kd), binding affinity (KD) at pH7.4 and pH5.8 condition, and dissociation rate (kd) at pH5.8* condition of the antibodies are listed in TABLE 2. Some kinetic parameters of COS0098pHv1 in acidic condition were not correctly calculated because of its weak binding response.
(§2) Also, to observe the cross-reactivity of anti-C1s antibodies against human C1r2s2 and cyno C1r2s2 (cyno C1r2s2 His/Flag), BIACORE (registered trademark) kinetics analysis was performed.
(In general: In SPR one partner is held on a chip, and binding of the other changes the refractive index at the surface.)

In assay [2] the target is T1, recombinant human C1r2s2 tetramer. Kind of assay: SPR (Biacore), antibody captured on ProA/G, antigen as analyte, 37 C, pH7.4, 1.2 mM CaCl2. How it is done: as §1, §2

B1: COS0098bb (antibody, V domains shown)
VH: QSVEESGGRLVTPGTPLTLTCTVSGFSLTKYTVSWVRQAPGKGLEWIGIINTGGSAYYATWAKGRFTFSKTSTTVDLQITSPTTEDTATYFCARGNGDTDYTNLWGPGTLVTVSS
VL: QVLTQTPSSVSEPVGGTVTINCQASENIYSALAWYQQKPGQPPKLLIYGASNLESGVPSRFKGSGSGTQFTLTISDLECADAATYYCQQYYFTSSTFGGGTKVEIK
notes: Anti-C1s rabbit antibody, parent of COS0098pHv1; the antibody was captured by ProA/G; also called anti-C1s antibody COS0098bb
As for B1, the koff – broadly, a measure of how fast the partners let go of each other – in assay [1] turned out to be 0.000909 s⁻¹.

B2: COS0098pHv1 (antibody, V domains shown)
VH: QVQLVQSGAEVKKPGSSVKVSCKASGHTFSKYTVSWIRQPPGKGLEWIGIINTGGSAYPATWAKGRVTITADESTSTAYMELSSLRSEDTAVYYCARGAGDTDYTNLWGQGTLVTVSS
VL: DIQMTQSPSSLSASVGDRVTITCQASENIYSALAWYQQKPGQPPKLLIYGASQLESGVPSRFSGSGSGTDFTLTISSLQPEDFATYYCQQYYFTSHTFGQGTKVEIK
notes: Humanized, optimized pH-dependent variant of COS0098bb
With B2, in assay [2], the Kd (usually the constant that tells how readily two partners part at equilibrium) turned out to be 4 nM; the koff stood at 0.00206 s⁻¹; the kon – broadly, the second-order rate constant of association – amounted to 514000 M⁻¹ s⁻¹. For the same molecule, in assay [1], the koff is 0.107 s⁻¹.
